From article PMC4396693, “Structural Basis of Latrophilin-FLRT Interaction” (Structure(London, England:1993), 2015) come the findings set out here.

Where a chain is given by its changes, count along the chain named. Names and notes keep the numbering of the source.

To fix the notation:
T1: murine LPHN3 olfactomedin domain (LPHN3^Olf, residues 202-463) (murine, UniProt Q80TS3 202-463)
T1 chain: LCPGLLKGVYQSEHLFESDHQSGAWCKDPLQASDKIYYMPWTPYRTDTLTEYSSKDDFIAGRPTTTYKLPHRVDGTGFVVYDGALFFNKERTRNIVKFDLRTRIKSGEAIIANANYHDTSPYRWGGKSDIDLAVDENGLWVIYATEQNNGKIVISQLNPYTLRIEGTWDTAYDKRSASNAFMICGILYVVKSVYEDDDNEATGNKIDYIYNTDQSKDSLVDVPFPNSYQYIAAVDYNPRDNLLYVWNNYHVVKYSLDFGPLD

T2: murine FLRT2 full ectodomain, wild type (residues 35-540) (murine, UniProt Q8BLU0 35-540)
T2 construct: Fibronectin leucine-rich repeat transmembrane protein 2 (FLRT2), mouse, full-length ectodomain, residues 35-540; also called FLRT2 ectodomain; source: HEK293S GlnTI- cells, transiently expressed
T2 sequence (looked up): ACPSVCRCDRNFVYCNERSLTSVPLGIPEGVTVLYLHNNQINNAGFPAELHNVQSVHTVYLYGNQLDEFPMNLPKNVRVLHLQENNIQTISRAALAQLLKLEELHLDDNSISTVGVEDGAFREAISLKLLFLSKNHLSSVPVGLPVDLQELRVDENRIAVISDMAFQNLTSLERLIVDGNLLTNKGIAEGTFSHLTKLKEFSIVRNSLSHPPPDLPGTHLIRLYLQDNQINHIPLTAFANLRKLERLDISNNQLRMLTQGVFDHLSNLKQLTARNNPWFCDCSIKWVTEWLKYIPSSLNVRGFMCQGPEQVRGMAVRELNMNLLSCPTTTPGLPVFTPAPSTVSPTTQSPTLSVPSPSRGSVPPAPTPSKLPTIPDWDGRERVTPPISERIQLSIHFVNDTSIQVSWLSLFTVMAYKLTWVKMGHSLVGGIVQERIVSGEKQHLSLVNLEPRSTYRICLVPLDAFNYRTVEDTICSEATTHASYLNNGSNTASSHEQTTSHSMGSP

T3: murine LPHN3 olfactomedin domain (LPHN3^Olf, residues 202-463), Q80TS3
T3 chain: T1 chain

B1: murine LPHN3 olfactomedin domain (LPHN3^Olf, residues 202-463) (domain or fragment, UniProt Q80TS3 202-463, looked up)
chain: T1 chain
notes: Latrophilin 3 (LPHN3), mouse, olfactomedin-like domain, residues 202-463; also called LPHN3 Olf domain; olfactomedin domain of murine LPHN3; source: kifunensine-treated HEK293T cells, transiently expressed, purified
B2: murine LPHN3^Lec-Olf, wild type, biotinylated at a C-terminal Avi-Tag (domain or fragment, UniProt Q80TS3 92-463, looked up)
chain: PIPMAVVRRELSCESYPIELRCPGTDVIMIESANYGRTDDKICDSDPAQMENIRCYLPDAYKIMSQRCNNRTQCAVVAGPDVFPDPCPGTYKYLEVQYECVPYKVEQKVFLCPGLLKGVYQSEHLFESDHQSGAWCKDPLQASDKIYYMPWTPYRTDTLTEYSSKDDFIAGRPTTTYKLPHRVDGTGFVVYDGALFFNKERTRNIVKFDLRTRIKSGEAIIANANYHDTSPYRWGGKSDIDLAVDENGLWVIYATEQNNGKIVISQLNPYTLRIEGTWDTAYDKRSASNAFMICGILYVVKSVYEDDDNEATGNKIDYIYNTDQSKDSLVDVPFPNSYQYIAAVDYNPRDNLLYVWNNYHVVKYSLDFGPLD
modifications: biotin on the C-terminal Avi-Tag (enzymatic)
notes: Latrophilin 3 (LPHN3), mouse, lectin and olfactomedin-like domains; residues 92-463 are stated for the crystallization construct; Limits 92-463 are printed for the crystallization construct; the limits of the Avi-tagged construct may be in the Supplemental Experimental Procedures; also called LPHN^Lec-Olf; not shown: Avi-Tag, C-terminal, kept
B3: murine LPHN3^Lec-Olf mutant LPHN3^LF(3) (T267N+K269T), biotinylated at a C-terminal Avi-Tag (domain or fragment, UniProt Q80TS3 92-463, looked up)
chain: B2 chain with T176N, K178T
modifications: biotin on the C-terminal Avi-Tag (enzymatic)
notes: Latrophilin 3 (LPHN3), mouse, lectin and olfactomedin-like domains; residues 92-463 are stated for the crystallization construct; artificial N-linked glycosylation site; not shown: Avi-Tag, C-terminal, kept
B4: murine LPHN3^Lec-Olf mutant LPHN3^LF(4) (P244N+R246T), biotinylated at a C-terminal Avi-Tag (domain or fragment, UniProt Q80TS3 92-463, looked up)
chain: B2 chain with P153N, R155T
modifications: biotin on the C-terminal Avi-Tag (enzymatic)
notes: as for B3
B5: murine FLRT2 full ectodomain, wild type (residues 35-540), Q8BLU0 UF (protein)
chain: T2 sequence (looked up) with H136N
B6: murine FLRT2 full ectodomain, wild type (residues 35-540) (domain or fragment)
chain: T2 sequence (looked up)

Experiment [1] concerns the target T1, murine LPHN3 olfactomedin domain …. As to the kind of experiment: SPR.
In experiment [2] the target is murine FLRT2 full ectodomain, wild type (residues 35-540) (murine) (UniProt Q8BLU0). Nature of the experiment: SPR; one or the other of the two set-ups (FLRT2 ectodomain on CM5 with LPHN3 Olf as analyte, or LPHN3^Lec-Olf on streptavidin with FLRT2 ectodomain as analyte); the text does not say which value belongs to which; 25°C, PBS pH 7.5. (In general: Surface plasmon resonance follows binding to a sensor surface in real time, without labels.)

The target in experiment [3] is T2, murine FLRT2 full ectodomain, wild type …. As to the kind of experiment: SPR; FLRT2 ectodomains (wild type, UF, FF) amine-coupled to a CM5 Biacore chip, LPHN3 Olf domain injected as analyte; equilibrium, 25°C, PBS pH 7.5, 0.005% polysorbate 20; 1:1 model. The note with it: both partners purified.
For experiment [4], the target named is B6. As to the kind of experiment: SPR.
The target of experiment [5] is T2, murine FLRT2 full ectodomain, wild type …. As to the kind of experiment: SPR; biotinylated wild-type or mutant LPHN3^Lec-Olf on streptavidin-coated Biacore chips, FLRT2 ectodomain injected as analyte; equilibrium, 25°C, PBS pH 7.5, 0.005% polysorbate 20; 1:1 model. The following applies: both partners purified.
Experiment [6] addresses T3, murine LPHN3 olfactomedin domain …. As to the kind of experiment: SPR. The note with it: chain shown with the change.
Where [7] appears, read: maximum response at the highest LPHN3 Olf concentration plotted (about 2 µM), parent: est. 390, read off a plot.

Turning to “murine FLRT2 full ectodomain, wild type (residues 35-540) (from UniProt Q8BLU0) FF”, in experiment [1] (setting [7]), the response was -0 RU. Usually Kd stands for the constant that tells how readily two partners part at equilibrium. wild-type LPHN3 proteins showed an equilibrium dissociation constant (Kd) in experiment [2] of 18 to 40 nM. B1: in experiment [3], the binding result is given as “binds”. In experiment [4], B2 had a dissociation constant (Kd) of 18 nM. Also, the binding result in experiment [5] is reported as “binds”. B3: the binding result in experiment [5] was “binds”. Still for that read-out and setting: the result for B4 reads “binds”. For B5, in experiment [6] (FLRT2 ectodomains immobilized on a CM5 Biacore chip, LPHN3 olfactomedin domain injected as analyte, 1:1 binding model, parent: 40 nM), the Kd turned out to be 15 nM. Further, the response in experiment [6] (setting [7]) came to 390 RU. With B6, in experiment [1], the equilibrium dissociation constant (Kd) was 40 nM.
